Experiment [1] addresses T1, HLA-DR7 molecule (DRB1*0701) (human).
T1 construct: HLA class II heterodimer
The experiment can be described thus: competitive ELISA, tracer YKL. (In general: In an ELISA, binding on a coated surface is turned into a signal by an enzyme label.)

In experiment [2] the target is T2, HLA-DR1 molecule (DRB1*0101) (human).
T2 construct: HLA class II heterodimer
The experiment can be described thus: competitive ELISA, tracer HA 306-318.

Experiment [3] has as its target T3, HLA-DR11 molecule (DRB1*1101) (human).
T3 construct: HLA class II heterodimer
The experiment is described as follows: competitive ELISA, tracer HA 306-318.

Experiment [4] concerns the target T4, HLA-DRB5 molecule (DRB5*0101) (human).
T4 construct: HLA class II heterodimer
The experiment can be described thus: competitive ELISA, tracer HA 306-318.

The target in experiment [5] is T5, HLA-DR13 molecule (DRB1*1301) (human).
T5 construct: HLA class II heterodimer
The experiment is described as follows: competitive ELISA, tracer B1 21-36.

The target in experiment [6] is T6, HLA-DR15 molecule (DRB1*1501) (human).
T6 construct: HLA class II heterodimer
The experiment is described as follows: competitive ELISA, tracer A3 152-166.

The target of experiment [7] is T7, HLA-DR4 molecule (DRB1*0401) (human).
T7 construct: HLA class II heterodimer
The experiment can be described thus: competitive ELISA, tracer HA 306-318.

Experiment [8] addresses T8, HLA-DRB4 molecule (DRB4*0101) (human).
T8 construct: HLA class II heterodimer
The experiment is described as follows: competitive ELISA, tracer E2/E168.

Experiment [9] has as its target T9, HLA-DP401 molecule (DPB1*0401) (human, UniProt P20036 29-222, limits assumed).
T9 construct: HLA class II heterodimer; also called DP*0401
The experiment can be described thus: competitive ELISA, tracer Oxy 271-287.

Experiment [10] has as its target T10, HLA-DP402 molecule (DPB1*0402) (human, UniProt P20036 29-222, limits assumed).
T10 construct: HLA class II heterodimer; also called DP*0402
The experiment is described as follows: competitive ELISA, tracer Oxy 271-287.

The target of experiment [11] is T11, HLA-DRB3 molecule (DRB3*0101) (human).
T11 construct: HLA class II heterodimer
The experiment can be described thus: competitive ELISA, tracer LOL 191-210.

The values below come from patent publication US20090004214A1 (COMMISSARIAT A L ENERGIE ATOMIQUE, published 2009).

A word on the IC50: it is the concentration needed to halve the response being measured. Higher therefore signals a need for much substance. In the case of LKLDRERAKNKIAKE (synthetic 15-mer) [survivin peptide 102-116], the IC50 in experiment [1] was found to be 50 µM; in [2], 7.75 µM; in experiment [3], 8.94 µM; in experiment [4], 0.018 µM.
DPIEEHKKHSSGCAF (synthetic 15-mer) [survivin peptide 72-86]: the figures for the IC50 in [5], in experiment [2] and in experiment [4] were 11 µM, 95 µM and 6.2 µM, respectively.
For the molecule FCFKELEGWEPDDDP (synthetic 15-mer) [survivin peptide 59-73], the IC50 in experiment [1] came to 9 µM; in [6], 8 µM; in experiment [2], 3.76 µM; in experiment [7] it was 58 µM; in experiment [3], 1.84 µM; in [4] it was 45 µM.
Turning to HRISTFKNWPFLEGC (synthetic 15-mer) [survivin peptide 17-31], the IC50 in experiment [1] stood at 0.018 µM; in [8] it was 7.5 µM; in experiment [5], 0.735 µM; in experiment [6] it was 0.003 µM; in experiment [2] it was 0.019 µM; in [7], 9.2 µM. In addition, the IC50 is 0.247 µM in experiment [3], 0.302 µM in [4], 0.04 µM in [9] and 0.029 µM in experiment [10].
Turning to ISTFKNWPFLEGCAC (synthetic 15-mer) [survivin peptide 19-33], the concentration for half-maximal inhibition (IC50) was 0.748 µM in [1]; 3.12 µM in [8]; 9.5 µM in experiment [5]; 0.081 µM in [6]; 0.01 µM in experiment [2]; 0.615 µM in [7]. For the same molecule, the IC50 came to 0.147 µM in [3], 3.78 µM in experiment [4] and 0.032 µM in [9].
Regarding STFKNWPFLEGCACT (synthetic 15-mer) [survivin peptide 20-34], the IC50 in [1] was 20 µM; in experiment [8] it was 5.5 µM; in experiment [7], 5.2 µM.
With MGAPTLPPAWQPFLK (synthetic 15-mer) [survivin peptide 1-15], the IC50 was determined as 80 µM in [6]; 10.8 µM in experiment [2]; 0.063 µM in [3]; 8 µM in experiment [4]; 9.2 µM in experiment [9]; 6.93 µM in [10].
Regarding KNWPFLEGCACTPER (synthetic 15-mer) [survivin peptide 23-37], the IC50 came out at 60 µM in [1]; 0.071 µM in experiment [2]; 5.2 µM in [7]; 37 µM in experiment [3]; 3.42 µM in experiment [4]; 3.7 µM in experiment [10].
In the case of QCFFCFKELEGWEPD (synthetic 15-mer) [survivin peptide 56-70], the IC50 in [1] worked out at 13 µM; in [6] it was 3 µM; in experiment [2], 1.6 µM; in [3] it was 0.363 µM; in [4], 20 µM; in experiment [11], 12 µM.
Consider PTLPPAWQPFLKDHR (synthetic 15-mer) [survivin peptide 4-18], for which the half-maximal inhibitory concentration (IC50) amounted to 40 µM in experiment [5]; 45 µM in [2]; 5.48 µM in experiment [4]; 9 µM in experiment [9]; 3.59 µM in experiment [10].
On to KELEGWEPDDDPIEE (synthetic 15-mer) [survivin peptide 62-76], for which the IC50 in experiment [6] was 65 µM; in experiment [11], 29 µM.
Consider ERMAEAGFIHCPTEN (synthetic 15-mer) [survivin peptide 36-50], for which the IC50 is 17 µM in [1]; 49 µM in experiment [8]; 2.55 µM in experiment [2]; 17 µM in [7]; 5.59 µM in experiment [3]; 3.79 µM in experiment [4]. Further, the IC50 came to 3.62 µM in [9] and 3.17 µM in experiment [10].
